± gives the standard deviation of the averaged measurements.

Data set [1] in a line: PET hydrolysis, aromatic products released after 48 h (umol product/mg enzyme); higher = more PET depolymerization activity. The gist of the method:
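PET hydrolysis activity was taken as the aromatic product in the supernatant and expressed per mg enzyme. This product was measured by absorbance at 260 and 280 nm against buffer blanks. Each reaction held 5 μg (50 μL) of tagless, SUMO-cleaved candidate enzyme purified on nickel beads, plus 3.5 mg amorphous PET film or crystalline PET powder in 450 μL buffer: 50 mM NaCitrate (pH 4.5, 5.5), 50 mM NaPhosphate (pH 6.5, 7.5) or glycine (pH 8.5). Plates were sealed and left 48 h at 40 or 60 °C without shaking.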

Data set [2] is described as follows: purified protein yield per well (BCA); higher = higher soluble expression. In short, it runs like this: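 Expression was done in E. coli C41(DE3), using 2 mL autoinduction cultures with 100 µg/mL kanamycin incubated at 37 °C for 2 h and at 18 °C for 40 h. Protein was purified on Ni-charged magnetic beads and released by SUMO protease cleavage. Yield of purified protein per well was measured with the Pierce Rapid Gold BCA kit; values below 25 ug (0.1 mg/mL) are below detection.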

The nature of data set [3]: melting temperature (DSF); higher = more thermostable. The gist of the method: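 Values are melting temperatures from differential scanning fluorimetry. Candidate enzymes were expressed in E. coli C41(DE3), purified on nickel beads and freed by SUMO protease cleavage. In sealed PCR plates on a Bio-Rad CFX96, 45 μL enzyme (0 to 0.3 mg/mL) was combined with 5 μL 5X Sypro Orange. Fluorescence was recorded from 25 °C for 250 cycles, rising 0.3 °C per cycle at a ramp of 0.3 °C/s.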

The mark [4] stands for this setting: substrate: cryPow, 40 °C, pH 5.5.
[5] abbreviates: substrate: cryPow, 40 °C, pH 6.5.
Setting [6] is: substrate: cryPow, 40 °C, pH 7.5.
Where [7] appears, read: substrate: cryPow, 40 °C, pH 8.5.
Setting [8] is: substrate: cryPow, 60 °C, pH 5.5.
Where [9] appears, read: substrate: cryPow, 60 °C, pH 6.5.
The mark [10] stands for this setting: substrate: cryPow, 60 °C, pH 7.5.
[11] abbreviates: substrate: cryPow, 60 °C, pH 8.5.
Setting [12] is: substrate: cryPow, 40 °C, pH 4.5.

As to “MAAGPAAVAADNPYQRGPDPTPASVAAPNGPFATAQVSVPPGYGFNGGMIYYPTDTSQGTFGAIAISPGYTALFSVELAWMGPRLASQGFVVIGIETNDRNDFDTARGTQLLAALDYLTGQSSVRSRVDPNRLAVAGHSMGGGGAFSAALRRPALKAAVGFTPFSPSQNLTNMQVPALLYSGQYDTVTTPSSVSNLYNGLPSTTEGAYIEAAGLDHSFPTRPNTLLMRTMIPWVKIFLDNDLRYTQFLCPLMDSSGVLQYRNTCPLVPPGLPSPSPTTAPPTTAPPTTAPPPTTAPPPTTAPPPTTAPPPTTNPPAGACSVSYTTNQWPGGFTRDVRITNTGGSVSSWTLAFTAGSNVSLSNGWNGDWSQSGSQITVRNAAWNGSLASGATVSIGFQGTFSGSTLPPLSNITLNGAACAS [DP068]”, the PET hydrolysis was 3 in data set [1] (setting [4]); 21 in data set [1] (setting [5]); 36 in data set [1] (setting [6]); 52 in data set [1] (setting [7]); below 3 in data set [1] (setting [8]); 7 in data set [1] (setting [9]). For the same sequence, the PET hydrolysis in data set [1] (setting [10]) came to 17; in data set [1] (setting [11]), 20. Further, in data set [2], the “purified protein yield per well” value was determined as 60 µg. Further, the melting temperature in data set [3] worked out at 63.4 C.
“MAENPYERGPAPTTSSIEASRGSFATSTVTVSRLAVSGFGGGTIYYPTSTTAGTFGAISIAPGFTALQSSIAWLGPRLASQGFVVFTIDTLTTSDQPDSRGRQLLAALDYLTQQSSVRSRIDSSRLGVVGHSMGGGGTLEAARSRPSLQAAIPLTGWNLTKTWSTVRVPTLVVGAQADTVAPVASHSIPFYNSLPSSLDKAYLELRGASHFAPNSSNTTIAKYTLSWLKRFIDNDTRYEQFLCPIPSTSLSISDYRGNCPHNG [TEP182]”: the PET hydrolysis in data set [1] (substrate: aFilm, 40 °C, pH 4.5) is below 3; in data set [1] (substrate: aFilm, 40 °C, pH 5.5), below 3; in data set [1] (substrate: aFilm, 40 °C, pH 6.5) it was below 3; in data set [1] (substrate: aFilm, 40 °C, pH 7.5) it was below 3; in data set [1] (substrate: aFilm, 60 °C, pH 4.5) it was below 3; in data set [1] (substrate: aFilm, 60 °C, pH 5.5) it was below 3. In addition, the PET hydrolysis in data set [1] (substrate: aFilm, 60 °C, pH 6.5) was below 3; in data set [1] (substrate: aFilm, 60 °C, pH 7.5), below 3; in data set [1] (setting [12]), below 3; in data set [1] (setting [4]), 6; in data set [1] (setting [5]), 11; in data set [1] (setting [6]) it was 17.5 ± 2.1. Moreover, the PET hydrolysis was below 3 in data set [1] (substrate: cryPow, 60 °C, pH 4.5); 4 in data set [1] (setting [8]); 12.5 ± 0.71 in data set [1] (setting [9]); 15.5 ± 0.71 in data set [1] (setting [10]). In addition, the “purified protein yield per well” value in data set [2] was determined as 290 µg. Besides, the melting temperature in data set [3] stood at 53.5 C.
“APDTVVGNPFARGPDPTKESIEAERGPFAVATEKVPGGKGFGGGTIHYPTDTSQGTFGAIAVAPGFTESESAIAWYGPRLASQGFVVITISTNGLWDLPASRADQLLAALRHVTDASQIKSRVDRDRLAVMGHSMGGGGSLIAARNNPALKATIPLTGWNPNTSFSDLKVPTFVVSAQNDFIAPDGSHSRPFYQSLPASLNKAYMRLAGVGHMAPVNPNVTIAKYSISWLKRFVDNDTRYSQFLCPLPTGDPKIAAYEGTCPLS [DP008]”: the PET hydrolysis in data set [1] (setting [4]) is 4; in data set [1] (setting [5]) it was 20; in data set [1] (setting [6]), 40; in data set [1] (setting [7]), 50; in data set [1] (setting [8]), below 3; in data set [1] (setting [9]) it was 9. Also, the PET hydrolysis in data set [1] (setting [10]) and in data set [1] (setting [11]) was 9 each time. Besides, in data set [2], the “purified protein yield per well” value is 67 µg. For the same sequence, the melting temperature in data set [3] is 50.5 C.
For “AIEHRRGPAPSEQSVLAANGPFSHSTFAVSDAASAKFGKGTIYYPNDTSQGTFGGVAISPGYTSTEPHIAWLGTRLAAHGFVTITITTNSLYDNPTERGQQLLAALDYLANNAPLAIRQRLDTSRMGVVGHSMGGGGSLYAVWNRPALKAAVPLAPYHTIKNWSGIKTPTMIIGGSADGVAPVEEHSERFYSSMTYARERAYAELEGANHSGSFLFEDHPIIGKFTVAWLKRFIDGDTRYDQFLCPPPTGAYLTEYRASCPHA [DP006]”, the PET hydrolysis in data set [1] (setting [4]) is below 3; in data set [1] (setting [5]) it was below 3; in data set [1] (setting [6]) it was below 3; in data set [1] (setting [7]), 5. Also, the “purified protein yield per well” value in data set [2] came to 28 µg. This sequence also displayed a melting temperature in data set [3] of 46.9 C.
Regarding “ADNPYQRGPDPTRSSVAAVNGPFANTSVAVPTGYGFNGGRIYYPTDTSQGTFGAIAISPGYTALFSVELAWMGPWLASHGFVVIGIETNSRNDFDTARGTQLLAALDYLTQQSPVRDRVDPNRLAVSGHSMGGGGALSAAIRRSSLKAVVGIAPYSPSSNLANDRVPTMVFAGQADTVVTPSYATGLYNSLPATTESAYLEVAGADHGFMVGRSNPVLIRTMLPFLKMFVDNDARYSQFLCPLADNSGVVSYRSTCPLLPTTPTTPPPTPSDTPPPTPSGTPTTPPTTGPPGTASLVVGAQSGRCLDVPNASRANGTRVQLWDCNRQANQQWTYTSTRQLRVYGDMCLDAAGSGNGAAVQIYGCHGQPNQQWTVNANGTISGVQSGRCLDVWSTANGAQVQLYDCHGQTNQRFTLTPVA [ESM080]”, the PET hydrolysis was 9 in data set [1] (setting [12]), 18 in data set [1] (setting [4]), 9 in data set [1] (setting [5]) and 4 in data set [1] (setting [6]). Besides, the “purified protein yield per well” value in data set [2] turned out to be 56.6 µg. In data set [3], this sequence gave a melting temperature of 61.6 C.
As for “ANPYERGPAPTKASIEATTGYFATAKVTVAKSSVSGFGGGTIYYPTSTTSGTFGAIALVPGFTNVQSAVAWLGPRVASQGFVVFIIDTNSVYDSPDSRGTQLLAALDYLTNTSTVKSRVDATRLGVMGYSMGGGGALSATKTRTSIKASVPMAPYHSTKTWTTVKTPTLIVTGQSDTTAPPASHGLAFYNSLSTSIDKAYMELKGAGHSAPTSANTTIAKYSISWFKRFIDDDTRYDQFLCPNPTDTTISSYKSTCNYS [DP082]”, the PET hydrolysis in data set [1] (setting [4]) is 5; in data set [1] (setting [5]), 76; in data set [1] (setting [6]) it was 100; in data set [1] (setting [7]) it was 93; in data set [1] (setting [8]) it was below 3; in data set [1] (setting [9]) it was 13. In addition, the figures for the PET hydrolysis in data set [1] (setting [10]) and in data set [1] (setting [11]) were 22 and 32, respectively. In data set [2], the “purified protein yield per well” value is 88 µg. In data set [3], this sequence returned a melting temperature of 61.9 C.

The values are drawn from the supplement of paper PMC12455559.
